Measured values: US20240002497A1 (Merck Sharp & Dohme, published 2024)

Key:
[1] = biological target: huNav1.7α + β1 (human); test: cell-based or functional assay
[2] = biological target: rhNav1.7α + β1-β2-β3 (rhesus monkey); test: cell-based or functional assay
[3] = biological target: T1, huNav1.7α+β1 (human, UniProt Q15858 1-1988; Q07699 19-218); test: binding FACS, HEKa/β1 cells
T1 construct: also called huNav1.7-beta1; HEKa/β1

[4] = biological target: T2, huNav1.7α (human, UniProt Q15858 1-1988); test: binding FACS, HEKa cells
T2 construct: HEK cells expressing the α subunit alone; also called HEKa; HEK huNav1.7α

[5] = biological target: T3, rhNav1.7α+β1-β2-β3 (rhesus monkey α subunit with human β …); test: binding FACS, CHO FlpIn cells
T3 construct: P2A cleaves it into α, β1, β2, β3; also called rhNav1.7-beta1-beta2-beta3

[6] = biological target: rhNav1.7α (rhesus monkey, UniProt Q15858 1-1988 (human entry)); test: cell-based or functional assay
[7] = biological target: T2, huNav1.7α; test: cell-based or functional assay

Row | Binder | Qpatch IC50 [1] [µM] | Qpatch IC50 [2] [µM] | EC50 [3] [µM] | EC50 [4] [µM] | EC50 [5] [µM] | also measured
1 | F010300880 (VHH) VHH: EVQLVESGGGLVQPGGSLRLSCAASGPVFNINRMAWYRRAPGKQRELVASSTPGGDTNYADSVKGRFTISRDNAKRVYLQMNSLTPEDTAVYYCRWLLQPSIYDISRTYWGQGTLVTVSS | 0.027 | 0.122 | – | – | – | –
2 | F010300990 (VHH) VHH: EVQLVESGGGLVQPGGSLRLSCAASGPVFNINRMAWYRRAPGKQRELVAYSTPGGSTNYADSVKGRFTISRDNAKRVYLQMNSLTPEDTAVYYCNALLQPSIYDISRIYWGQGTLVTVSS | 0.249 | 0.101 | – | – | – | –
3 | F010300631 (VHH) VHH: EVQLVESGGGLVQPGGSLRLSCAASGPVFNINSMAWYRRAPGKQRELVAYSTPGGSTNYADSVKGRFTISRDNAKRVYLQMNSLTPEDTAVYYCRALLQPSIYDISRTYWGQGTLVTVSS | 0.073 | 0.173 | – | – | – | –
4 | F010300684 (VHH) VHH: EVQLVESGGGLVQPGGSLRLSCAASGPVFNWNSMAWYRRAPGKQRELVASSTPGGSTNYADSVKGRFTISRDNAKRVYLQMNSLTPEDTAVYYCRALLQPSIYDISRIYWGQGTLVTVSS | 0.202 | 0.212 | – | – | – | –
5 | F010300900 (VHH) VHH: EVQLVESGGGLVQPGGSLRLSCAASGPVFNINRMAWYRRAPGKQRELVASSTPGGDTNYADSVKGRFTISRDNAKRVYLQMNSLTPEDTAVYYCRWLLQPSIYDISRIYWGQGTLVTVSS | 0.196 | 0.036 | – | – | – | –
6 | F010300468 (VHH, vs F0103275B05: N93R; also called F0103275B05(N93R)+FLAG3-HIS6; F103275B05(N93R)) VHH: EVQLVESGGGLVQPGGSLRLSCAASGSIFNINSMAWYRRAPGKQRELVASSTNGGSTNYADSVKGRFTISRDNAKRVYLQMNSLTPEDTAVYYCRALLQPSIYDISRTYWGQGTLVTVSS | – | – | – | – | 0.04 | 2-pulse IC50 [M], P1 [6]: 6e-06 M; 2-pulse IC50 [M], P2 [6]: 3e-06 M; 2-pulse IC50 [M], P1 [7]: 5e-06 M; 2-pulse IC50 [M], P2 [7]: 4e-06 M
7 | F010300796 (VHH, vs F0103275B05: S27P, I28V, S33R, S50Y, N53P, S56D) VHH: EVQLVESGGGLVQPGGSLRLSCAASGPVFNINRMAWYRRAPGKQRELVAYSTPGGDTNYADSVKGRFTISRDNAKRVYLQMNSLTPEDTAVYYCNALLQPSIYDISRTYWGQGTLVTVSS | – | – | 0.038 | 0.0058 | 0.044 | –

Second part, led by results:

Row | Qpatch IC50 [1] [µM] | Qpatch IC50 [2] [µM] | EC50 [3] [µM] | EC50 [4] [µM] | EC50 [5] [µM] | Binder | also measured
8 | – | – | 0.021 | 0.028 | 0.024 | F010301461 (VHH, also called F0103275B05(S33R, S50Y, S56D, N93R)) VHH: EVQLVESGGGLVQPGGSLRLSCAASGSIFNINRMAWYRRAPGKQRELVAYSTNGGDTNYADSVKGRFTISRDNAKRVYLQMNSLTPEDTAVYYCRALLQPSIYDISRTYWGQGTLVTVSS | –
9 | – | – | 0.026 | 0.015 | 0.032 | F010301460 (VHH, vs F0103275B05: S27P, I28V, S33R, S50Y, N53P, N93R) VHH: EVQLVESGGGLVQPGGSLRLSCAASGPVFNINRMAWYRRAPGKQRELVAYSTPGGSTNYADSVKGRFTISRDNAKRVYLQMNSLTPEDTAVYYCRALLQPSIYDISRTYWGQGTLVTVSS | –
10 | – | – | 0.018 | 0.022 | 0.023 | F010301459 (VHH, vs F0103275B05: S27P, I28V, S33R, N53P, S56D, N93R) VHH: EVQLVESGGGLVQPGGSLRLSCAASGPVFNINRMAWYRRAPGKQRELVASSTPGGDTNYADSVKGRFTISRDNAKRVYLQMNSLTPEDTAVYYCRALLQPSIYDISRTYWGQGTLVTVSS | –
11 | – | – | 0.022 | 0.035 | 0.023 | F010301462 (VHH, vs F0103275B05: S27P, I28V, S33R, S50Y, N53P, S56D, N93R) VHH: EVQLVESGGGLVQPGGSLRLSCAASGPVFNINRMAWYRRAPGKQRELVAYSTPGGDTNYADSVKGRFTISRDNAKRVYLQMNSLTPEDTAVYYCRALLQPSIYDISRTYWGQGTLVTVSS | –
12 | – | – | 0.06 | 0.0085 | 0.04 | F010301000 (VHH, vs F0103275B05: S27P, I28V, S33R, S50Y, N53P, S56D, T101I) VHH: EVQLVESGGGLVQPGGSLRLSCAASGPVFNINRMAWYRRAPGKQRELVAYSTPGGDTNYADSVKGRFTISRDNAKRVYLQMNSLTPEDTAVYYCNALLQPSIYDISRIYWGQGTLVTVSS | –
